Results taken from PMC8325345.

B1: FAM-DNASS16 (ssDNA)
DNA: TATAAACCAGACCGTC
B2: FAM-RNABlunt (dsRNA)
RNA 1: GCUGCCAGACCAAAU
RNA 2: AUUUGGUCUGGCAGC
B3: FAM-RNASS15 (ssRNA)
RNA: GCUGCCAGACCAAAU

Key:
ecHrpA FL = target: T1, ecHrpA FL (Escherichia coli DH5-alpha, UniProt P43329 1-1300); assay: fluorescence anisotropy
T1 sequence: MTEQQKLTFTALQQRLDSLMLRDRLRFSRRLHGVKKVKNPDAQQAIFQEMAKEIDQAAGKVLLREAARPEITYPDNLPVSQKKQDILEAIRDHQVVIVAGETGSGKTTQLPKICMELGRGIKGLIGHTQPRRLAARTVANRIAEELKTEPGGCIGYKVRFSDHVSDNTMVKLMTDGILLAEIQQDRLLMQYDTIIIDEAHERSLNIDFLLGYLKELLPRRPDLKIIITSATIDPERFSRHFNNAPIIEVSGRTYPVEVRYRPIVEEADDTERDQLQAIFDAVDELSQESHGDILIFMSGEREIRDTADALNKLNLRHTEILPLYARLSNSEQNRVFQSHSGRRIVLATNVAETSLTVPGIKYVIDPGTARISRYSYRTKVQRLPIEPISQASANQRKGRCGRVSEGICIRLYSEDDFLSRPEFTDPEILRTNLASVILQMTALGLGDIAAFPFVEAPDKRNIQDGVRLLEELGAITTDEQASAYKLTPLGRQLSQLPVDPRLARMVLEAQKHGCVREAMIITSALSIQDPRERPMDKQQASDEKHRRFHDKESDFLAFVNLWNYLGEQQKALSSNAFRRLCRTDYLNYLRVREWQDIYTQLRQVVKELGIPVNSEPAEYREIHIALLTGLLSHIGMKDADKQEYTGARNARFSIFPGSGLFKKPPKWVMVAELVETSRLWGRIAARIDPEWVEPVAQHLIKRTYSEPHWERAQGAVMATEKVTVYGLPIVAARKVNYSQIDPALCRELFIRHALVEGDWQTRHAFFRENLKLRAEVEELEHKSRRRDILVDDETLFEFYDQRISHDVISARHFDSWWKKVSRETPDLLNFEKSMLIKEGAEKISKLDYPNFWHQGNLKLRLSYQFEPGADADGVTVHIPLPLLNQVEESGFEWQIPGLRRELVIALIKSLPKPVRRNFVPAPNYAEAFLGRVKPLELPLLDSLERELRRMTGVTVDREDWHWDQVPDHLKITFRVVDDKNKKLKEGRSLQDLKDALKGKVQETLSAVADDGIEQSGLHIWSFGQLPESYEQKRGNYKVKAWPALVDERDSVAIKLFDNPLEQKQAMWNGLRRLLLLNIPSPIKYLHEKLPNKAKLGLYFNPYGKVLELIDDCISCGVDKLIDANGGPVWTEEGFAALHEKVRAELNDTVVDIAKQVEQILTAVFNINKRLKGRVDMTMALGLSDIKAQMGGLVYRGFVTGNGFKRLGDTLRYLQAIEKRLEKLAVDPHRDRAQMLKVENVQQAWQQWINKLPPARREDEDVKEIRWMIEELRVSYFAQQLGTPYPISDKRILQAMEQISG

ecHrpA1-783,E675A = target: T2, ecHrpA1-783,E675A (Escherichia coli DH5-alpha, UniProt P43329 1-783, E675A); assay: fluorescence anisotropy
T2 sequence: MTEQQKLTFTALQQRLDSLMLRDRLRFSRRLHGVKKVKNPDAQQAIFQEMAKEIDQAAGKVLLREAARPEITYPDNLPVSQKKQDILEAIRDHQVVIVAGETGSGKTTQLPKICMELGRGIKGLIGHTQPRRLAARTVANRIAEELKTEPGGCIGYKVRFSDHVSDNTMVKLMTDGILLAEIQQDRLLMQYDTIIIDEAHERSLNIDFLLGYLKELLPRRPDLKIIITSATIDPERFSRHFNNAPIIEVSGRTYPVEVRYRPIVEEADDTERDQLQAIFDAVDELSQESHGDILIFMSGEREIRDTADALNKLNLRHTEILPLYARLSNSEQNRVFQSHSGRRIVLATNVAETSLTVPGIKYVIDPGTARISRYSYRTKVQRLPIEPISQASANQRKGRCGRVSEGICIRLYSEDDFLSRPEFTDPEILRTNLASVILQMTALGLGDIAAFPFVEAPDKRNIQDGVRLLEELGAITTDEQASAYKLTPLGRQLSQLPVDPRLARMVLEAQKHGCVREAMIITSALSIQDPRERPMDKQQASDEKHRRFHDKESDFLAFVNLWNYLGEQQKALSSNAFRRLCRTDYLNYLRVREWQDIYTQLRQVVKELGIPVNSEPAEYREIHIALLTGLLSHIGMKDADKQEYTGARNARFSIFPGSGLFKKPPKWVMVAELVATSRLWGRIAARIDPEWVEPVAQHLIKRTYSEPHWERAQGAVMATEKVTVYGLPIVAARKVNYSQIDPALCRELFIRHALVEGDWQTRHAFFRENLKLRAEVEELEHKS

Binder | binding result (ecHrpA FL) | binding signal (ecHrpA1-783,E675A)
B1 | no binding | 
B2 | no binding | 
B3 |  | ~2.2 fold lower RNA binding than ecHrpA1-783
